Laboratory results as given in patent US20240294624A1, “ANTI-ERYTHROPOIETIN ANTIBODY” (ANDREMACON S.R.L., priority 2021, published 2024).

What was measured:
[1] = tested on: primary GECs; assay: MTT cell viability assay; format: cell-based, human; conditions: 96 hours, anti-EPO (C4) 6 μg/ml, TMZ 100 μM, FTY720 100 nM
Description: B. Primary glioblastoma endothelial cells (GECs).

[2] = tested on: A2780; assay: MTT cell viability assay; format: cell-based, human; conditions: 96 hours, 6 μg/ml
Description: I. Ovarian cancer cell line (A2780); ovarian cancer cells used in toxicity testing, drug screening and genetic cancer studies.

[3] = Tissue distribution by SPR (tumor, liver, kidney); format: in vivo, mice
Description: Tumor tissues were analyzed after their homogenization in TBST (1 g/2 mL) with an Precellys ysing Kit tubes, ultracentrifugation for 1 h at 110000 g and 1:2 dilution of the supernatant into optimized TBST buffer.
The pharmacokinetic (PK) profile of anti-EPO (C4) was assessed after single i.v. injection in mice models for glioblastoma. In particular, the antibody concentrations were measured at different time points after treatment (from 6 hours to 1 week) in:
1) plasma, to determine the main PK parameters (mainly half-time of elimination and volume of distribution); 2) tumor, to assess the antibody presence in the target tissue; 3) in kidney and liver to evaluate the elimination route.
When tumor masses reached about 500 mg, animals were treated i.v. with 10 mg/kg of anti-EPO (C4) antibody. Blood samples were collected from the retroorbital plexus under isoflurane anesthesia at 4, 24, 48, 72, 120, and 168 h from treatment (FIG. 26B). Mice were sacrificed by cervical dislocation. Tumors were collected. To obtain plasma, blood samples were centrifuged at 4000 rpm for 10 min at 4° C. All samples were immediately frozen in dry ice and then stored at −20° C. until analysis. Four mice were used at each time point.

[4] = tested on: cancer cells; assay: Neutralizing anti-EPO bioassay (MTT); format: cell-based; conditions: nineteen anti-EPO hybridoma culture supernatants compared; 96 h
Description: The cell-based assay was used to measure the capacity of each clone to neutralize EPO signaling. […] Optical density values (O.D.) were recorded, and neutralizing activity of each clone was expressed as percentage of viability of cells treated with clones respect to control condition, BM (FIG. 1A).The best n=3 final clones were selected and specific monoclonal antibodies were separated and purified in PBS at PH7.4 sterilized by membrane filtration (produced in culture supernatant and purified by Protein A/G). Furthermore, anti-EPO monoclonal antibodies were sequenced by the following protocol: total RNA was extracted separately from several batches of cultured hybridoma cells, cDNA were then synthesized by reverse transcription using oligo-dT primers, and VH and VL were finally amplified by PCR. VH and VL fragments, respectively amplified by IgG degenerate primers and Kappa-specific primers, are represented by gel electrophoresis (FIG. 1B), confirming that isotypes were IgG Kappa.

B1: anti-EPO (C4): isolated anti-Erythropoietin monoclonal antibody, VL SEQ ID NO:6, VH SEQ ID NO:14, hybridoma DSM ACC 3370 (antibody, listed as Homo sapiens, V domains shown)
VH: EVKLQESGGGLVQPGGSLKLSCAASGFTFSTYTMSWVRQTPEKRLEWVAYISNGGDRTYYPDTVKGRFTISRDDAKNTLFLQMSSLKSEDTAMYYCARHNITTVPFTMDYWGQGTSVTVSS
VL: DIVLTQSPASLAVSLGQRATISCRASESVDYYGTGLMQWYQQRPGQPPKLLIYGASNVGSGVPARFSGSGSGTDFSLNIHPVEGDDIAMYFCQQTRKVPSTFGGGTKLEIK
modifications: VH amino acid sequence; VL amino acid sequence
cells initially seeded dead [1]: ~70%
cells initially plated dead [2]: 63%
antibody distribution tumor vs kidney and liver ([3]; i.v. 10 mg/Kg, SPR): higher levels of antibody in the tumoral tissues respect to kidney and liver
antibody levels in tumor tissues, PK profile ([3]; tumor, i.v. 10 mg/kg): levels were measurable, with a bell-shaped PK profile
neutralizing activity (inhibition of cancer cell viability) [4]: higher neutralizing activity
